The record followed here is patent US20170240637A1 (Memorial Sloan Kettering, published 2017).

Experiment [1] addresses T1, 2Ig-B7H3 without Fc fusion (human, UniProt Q5ZPR3-2 29-245, limits assumed).
T1 construct: also called 2IgB7H3 (R&D)
T1 sequence (looked up): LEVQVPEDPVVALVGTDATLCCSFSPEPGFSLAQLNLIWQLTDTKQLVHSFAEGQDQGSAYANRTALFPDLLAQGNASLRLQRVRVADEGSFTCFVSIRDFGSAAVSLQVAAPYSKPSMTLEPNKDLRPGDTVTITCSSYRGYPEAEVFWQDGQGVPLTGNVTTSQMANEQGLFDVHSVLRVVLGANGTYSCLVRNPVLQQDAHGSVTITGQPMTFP
Put plainly: SPR, IgG on 2Ig-B7-H3 without Fc fusion. The protocol:
(§1) In brief, B7H3 antigen (either 2Ig-B7H3, 4Ig-B7H3, 2Ig-B7H3-mFc, 4Ig-B7H3-mFc), was directly immobilized onto the CM5 sensor chip via […]. Reference surface was set up for nonspecific binding and refractive index changes. […] The association and dissociation phase data were fitted simultaneously to a 1:1 model by using BIAevaluation 3.2. All the experiments were done at 25° C.
A general note: Surface plasmon resonance follows binding to a sensor surface in real time, without labels.

Experiment [2] has as its target T2, 4Ig-B7H3 (human, UniProt Q5ZPR3 27-461, limits assumed).
T2 construct: also called 4Ig-B73H3
T2 sequence (looked up): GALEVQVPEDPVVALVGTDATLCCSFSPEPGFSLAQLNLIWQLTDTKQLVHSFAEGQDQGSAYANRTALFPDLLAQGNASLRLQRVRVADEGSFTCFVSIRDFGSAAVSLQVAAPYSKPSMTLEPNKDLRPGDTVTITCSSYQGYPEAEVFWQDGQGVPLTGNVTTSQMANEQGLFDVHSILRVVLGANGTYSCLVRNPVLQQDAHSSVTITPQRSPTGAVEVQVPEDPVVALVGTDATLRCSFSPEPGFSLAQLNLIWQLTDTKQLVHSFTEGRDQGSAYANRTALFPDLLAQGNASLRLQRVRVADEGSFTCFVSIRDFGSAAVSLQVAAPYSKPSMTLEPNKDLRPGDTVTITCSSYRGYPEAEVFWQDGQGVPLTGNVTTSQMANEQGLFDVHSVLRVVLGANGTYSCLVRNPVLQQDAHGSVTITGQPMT
Nature of the experiment: SPR, IgG on 4Ig-B7-H3 without Fc fusion. Here is the method: as §1

The target of experiment [3] is T2, 4Ig-B7H3. Put plainly: ELISA titled 'B7H3 ELISA'; legend: 4Ig-B7H3 (the ELISA method coats B7H3-mFc); IgG serially diluted. Here is the method: B7H3-mFc (100 ng/well) or 2IgB7H3 (R&D, Minneapolis, Minn.) (25 ng/well) were coated on polyvinyl microtiter plates in PBS overnight. Plates were then blocked with 0.5% BSA in PBS at 150 μl per well for 1 h at room temperature. Antibodies were added in triplicates with serial dilution in 0.5% BSA. Following incubation for 1 h at room temperature and washing with PBS, HRP-mouse anti-human Fc antibody, HRP-streptavidin, or HRP-mouse anti-Flag antibody was added. After incubation for 1 h at room temperature and further washing, the color was developed and quantified using an ELISA plate reader at 490 nm.
On the technique in general: ELISA stands for enzyme-linked immunosorbent assay.

In experiment [4] the target is T3, 2Ig-B7H3-mFc mutant R127A (human, UniProt Q5ZPR3-2 29-248, limits assumed).
T3 construct: not shown: mouse Fc
T3 sequence (looked up): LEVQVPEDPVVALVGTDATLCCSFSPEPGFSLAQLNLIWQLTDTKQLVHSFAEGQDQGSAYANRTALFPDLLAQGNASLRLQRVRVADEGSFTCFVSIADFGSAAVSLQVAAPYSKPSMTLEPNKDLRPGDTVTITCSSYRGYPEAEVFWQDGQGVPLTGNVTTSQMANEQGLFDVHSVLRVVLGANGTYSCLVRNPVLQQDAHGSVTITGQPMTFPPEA
Put plainly: SPR, mutant 2Ig-B7H3-mFc on chip. Here is the method:
(§2) In brief, B7H3 antigen (either 2Ig-B7H3, 4Ig-B7H3, 2Ig-B7H3-mFc, 4Ig-B7H3-mFc), was directly immobilized onto the CM5 sensor chip via […]. Reference surface was set up for nonspecific binding and refractive index changes. For analysis of the kinetics of interactions, varying concentrations of scFvs were injected at flow rate of 30 μl/min using running buffer containing 10 mM HEPES, 150 mM NaCl, 3 mM EDTA, and 0.05% Surfactant P-20 (pH 7.4). The association and dissociation phase data were fitted simultaneously to a 1:1 model by using BIAevaluation 3.2. All the experiments were done at 25° C.

Experiment [5] addresses T4, wild type 2Ig-B7H3-mFc (human, UniProt Q5ZPR3-2 29-248, limits assumed).
T4 construct: Q5ZPR3 canonical entry is the 4Ig isoform; the 2Ig form is its shorter isoform; also called 2Ig-B7H3-Fc; WT 2Ig-B7H3-Fc; not shown: mouse Fc
T4 sequence (looked up): T3 sequence (looked up) with A99R
Nature of the experiment: SPR, antigen on CM5 chip. The protocol: as §2

Experiment [6] concerns the target T5, 4Ig-B7H3 fused to mouse Fc (B7H3-mFc) (human, UniProt Q5ZPR3 29-466, limits assumed, biotinylated on primary amines (NHS-biotin) in the experiment of paragraph 316).
T5 construct: Expressed in DG44 CHO cells; also called 4Ig-B7H3-Fc; 4Ig-B7H3-mFc; not shown: mouse Fc
T5 sequence (looked up): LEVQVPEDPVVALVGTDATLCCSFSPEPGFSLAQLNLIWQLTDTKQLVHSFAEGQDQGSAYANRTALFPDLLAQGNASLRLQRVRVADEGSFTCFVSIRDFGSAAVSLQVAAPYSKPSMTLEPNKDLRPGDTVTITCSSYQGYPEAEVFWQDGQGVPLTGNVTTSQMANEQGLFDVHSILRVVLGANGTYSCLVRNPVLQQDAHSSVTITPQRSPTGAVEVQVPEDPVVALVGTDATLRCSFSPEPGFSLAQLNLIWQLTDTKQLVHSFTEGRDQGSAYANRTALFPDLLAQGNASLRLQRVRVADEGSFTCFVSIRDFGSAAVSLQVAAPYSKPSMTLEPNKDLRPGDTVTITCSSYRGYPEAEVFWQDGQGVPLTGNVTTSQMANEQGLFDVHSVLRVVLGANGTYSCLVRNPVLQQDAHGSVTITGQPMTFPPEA
Put plainly: SPR, IgG on 4Ig-B7H3-Fc. The protocol:
as §1

Experiment [7] addresses T4, wild type 2Ig-B7H3-mFc. Put plainly: SPR, IgG on 2Ig-B7H3-mFc. The protocol:
as §1

Usually Kd stands for the concentration at which binding is half-saturated. A low value points to a tighter complex. For orientation: koff means a measure of how fast the partners let go of each other. Read a high koff as fast dissociation. Usually kon stands for the second-order rate constant of association. Low readings indicate slower complex formation, high ones faster complex formation. The EC50 (read off the curve) is the concentration giving half of the maximal effect.

Residue numbers refer to the chain shown, from its start.

B1: mouse/human chimeric 8H9 (ch8H9) IgG1 (antibody, V domains shown)
VH: QVQLQQSGAELVKPGASVKLSCKASGYTFTNYDINWVRQRPEQGLEWIGWIFPGDGSTQYNEKFKGKATLTTDTSSSTAYMQLSRLTSEDSAVYFCARQTTATWFAYWGQGTLVTVSA
VL: DIVMTQSPATLSVTPGDRVSLSCRASQSISDYLHWYQQKSHESPRLLIKYASQSISGIPSRFSGSGSGSDFTLSINSVEPEDVGVYYCQNGHSFPLTFGAGTKLELKR
As to B1, the Kd in experiment [1] was 2.7 nM; in experiment [2], 7.7 nM; in experiment [5] it was 0.74 nM; in experiment [6] it was 1.2 nM; in experiment [7] it was 0.76 nM. The koff in experiment [1] was 8.73e-05 s⁻¹; in experiment [2], 0.000218 s⁻¹; in experiment [5], 3.51e-05 s⁻¹; in experiment [6], 5.49e-05 s⁻¹; in experiment [7], 3.79e-05 s⁻¹. Further, the kon in experiment [1] was 32100 M⁻¹ s⁻¹; in experiment [2], 28300 M⁻¹ s⁻¹; in experiment [5] it was 47400 M⁻¹ s⁻¹; in experiment [6], 44800 M⁻¹ s⁻¹; in experiment [7], 49600 M⁻¹ s⁻¹. Also, in experiment [3], the “EC50 (read off the curve)” value was approximately 5 ng/mL. Besides, the binding result in experiment [4] was “no binding (tested: 400 nM)”.
